Test results taken from patent US20030180744A1.

Columns and labels:
[1] = molecular target: hKGF receptor on the surface of PC-3 prostatic carcinoma cells (UniProt P21802); assay: competition of unlabeled hKGF with 125I-hKGF for binding to PC-3 cells
[2] = molecular target: hKGF receptor on the surface of PC-3 prostatic carcinoma cells (UniProt P21802); assay: value used to calculate Ki from IC50 in the PC-3 cell assay (FIG. 12 legend)
[3] = molecular target: human KGF receptor on transfected NIH3T3 cells (NIH3T3/FGFR-2) (human) (UniProt P21802); assay: competition of unlabeled hKGF with 125I-hKGF for binding to NIH3T3/FGFR-2 cells, with 1 ug/ml heparin
[4] = molecular target: hKGF receptor on the surface of PC-3 prostatic carcinoma cells (UniProt P21802); assay: saturation binding of 125I-hKGF on PC-3 cells, Scatchard analysis
[5] = molecular target: hKGF receptor on the surface of PC-3 prostatic carcinoma cells (UniProt P21802); assay: competition of unlabeled hKGF with 125I-hKGF for binding to PC-3 cells, full competition curve

IC50 [1]: 70 nM | Kd [2]: 0.15 nM | Ki [3]: 0.034 nM | Kd [4]: 0.1 to 0.2 nM | Ki [5]: 7.7 nM
B1: Recombinant human Keratinocyte Growth Factor (hKGF) (ligand, UniProt P21781 32-194, looked up)
chain: CNDMTPEQMATNVNCSSPERHTRSYDYMEGGDIRVRRLFCRTQWYLRIDKRGKVKGTQEMKNNYNIMEIRTVAVGIVAIKGVESEFYLAMNKEGKLYAKKECNEDCNFKELILENHYNTYASAKWTHNGGEMFVALNQKGIPVRGKKTKKEQKTAHFLPMAIT
